Results: US20190264171A1, “DIFFERENTIATION OF PLURIPOTENT STEM CELLS INTO CORNEAL CELLS” (TAMPEREEN YLIOPISTO, priority 2016, published 2019)

Tested on: human pluripotent stem cells cultured in feeder free conditions
Test: Corneal epithelial differentiation of pluripotent stem cells cultured in feeder free conditions
Assay type: cell-based
Experimental: Feeder-free culture, xeno-free culture of human pluripotent stem cells was based on the use of recombinant Laminin-521 (Biolamina, Sweden) extracellular matrix protein coating and defined, xeno-free culture medium, the Essential 8™ Flex Medium (Life Technologies). The pluripotent stem cells were transferred to the culture system from the standard feeder cell based culture system by manually cutting undifferentiated colony parts with scalpel and plating to ln-521 coated (0.75-1.8 μg/cm^2 overnight at +4° C.) culture plates. The cells are allowed to grow near confluency with medium changed 3-4 times a week, and passaged with TrypLE™ Select Enzyme as single cells twice a week.
Differentiation of pluripotent stem cells cultured on feeder cells to corneal epithelial cells with the induction method disclosed in EP 2828380 comprising TGF-beta inhibitor, Wnt inhibitor and a fibroblast growth factor (10 μM SB-505124+10 μM IWP-2, 50 ng/ml bFGF), followed by differentiation in Cnt-30 epithelial medium on collagen IV matrix, yielded at best >90% p63 positive cells with correct corneal epithelial morphology.
However, prominent neuronal differentiation and cell detachment was recurrently observed as the induction method disclosed in EP 2828380 was used.
The human pluripotent stem cells cultured in the feeder free culture system as described above were differentiated to corneal epithelial cells by detaching the pluripotent cells with TrypLE™ Select Enzyme for 4 min at +37° C. On Day 0, embryoid bodies were created with overnight incubation with 5 μM Blebbistatin (Sigma, B05601) or 10 μM Y-27632 dihydrochloride (R&D Systems, 1254) in a xeno-free culture medium containing: Knockout-Dulbecco's Modified Eagle's Medium (ko-DMEM) supplemented with 15% Xeno-Free Knockout Serum Replacement (XF-ko-SR), 2 mM GlutaMax (all from ThermoFisher Scienfic), 1% MEM Eagle Non-Essential Amino acid solution (NEAA, Cambrex Bio Science), 50 U/ml penicillin/streptomycin (Cambrex Bio Science), 0.1 mM ß-mercaptoethanol (ThermoFisher Scienfic). […]

Cc1ccc2nc(NC(=O)CSc3nc4c(c(=O)n3-c3ccccc3)SCC4)sc2c1 [IWP-2, reference compound]
cell survival on omitting the substance from the first phase induction medium (IWP-2 omitted from induction medium, collagen IV + laminin-521 matrix): notably enhanced cell survival

B1: BMP-4: bone morphogenetic protein 4 (Peprotech) (protein, UniProt P12644 293-408, looked up)
Bone morphogenetic protein 4: SPKHHSQRARKKNKNCRRHSLYVDFSDVGWNDWIVAPPGYQAFYCHGDCPFPLADHLNSTNHAIVQTLVNSVNSSIPKACCVPTELSAISMLYLDEYDKVVLKNYQEMVVEGCGCR
corneal epithelial cell morphology and marker expression (25 ng/ml BMP-4 for 2 to 3 days after initial induction): best result of most cells with correct corneal epithelial cell morphology and marker expression | epithelial morphology and marker expression after additional induction (BMP-4 induction (induction phase 3) after SB-505124/bFGF induction, total of 20-30 days of differentiation): best result with most cells having correct epithelial morphology and marker expression
